Positions count from the first letter of the chain named. In names and notes the source's numbering stands.
Assays:
[1] = system: Jurkat cells; test: Tacrolimus serum experiments: dose response of FKBP13 constructs under different serum concentrations, GFP MFI; assay type: cell-based; settings: increasing FBS, FIGS. 51-54
Description: Incubation with increasing FBS results in 2 fold increase in Ec50 with 80% FBS.

[2] = clinically approved dosages 0.1-0.3 mg/kg of body weight, tissue/organ transplants; cited from earlier work
[3] = target: T1, FKBP13 (Homo sapiens, UniProt P26885); settings: read-out: binding affinity for FKBP13; cited from earlier work
T1 sequence (P26885 22-142): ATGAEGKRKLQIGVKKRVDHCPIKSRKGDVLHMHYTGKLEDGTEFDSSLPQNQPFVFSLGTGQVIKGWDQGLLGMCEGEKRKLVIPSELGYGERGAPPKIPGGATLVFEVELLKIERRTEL

[4] = system: HEK-293T cells; test: Tacrolimus (FK506) response of FKBP13-AcGFP-mCherry constructs transiently transfected into HEK-293T cells, flow cytometry; assay type: cell-based; settings: for AcGFP stabilization / fluorescence signal in response to FK506: 0, 1 or 10 μM FK506, 24 hours; for Fold Change: tacrolimus response of FKBP13 DRD-AcGFP construct, Table 3
Description: The DRD in FKBP13-039 was a wildtype (WT) FKBP13 (i.e., a 98 amino acid fragment of SEQ ID NO: 1). […] The FKBP13-043, FKBP13-044, and FKBP13-045 constructs included DRD-genic mutations D90G, M54A and M96V, respectively, and three binding site mutations (Q72R, Q84E, and A117H).

[5] = system: Jurkat cells; test: Tacrolimus dose response of FKBP13-AcGFP-mCherry constructs stably transduced into Jurkat cells, GFP MFI by flow cytometry; assay type: cell-based
Outline: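 GFP geometric MFI was read by flow cytometry in mCherry+ cells and curve-fitted against tacrolimus dose. Cells were Jurkat E6-1, lentivirus-transduced with FKBP13-AcGFP-mCherry fusion constructs until 10-25% mCherry-positive on day 5 post-transduction.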

[6] = system: HEK293 cells; test: Tacrolimus dose response of FKBP13 constructs transiently transfected into HEK293 cells, Celigo Image Cytometer; assay type: cell-based; settings: for performance / drug responsiveness in tacrolimus dose response: FIGS. 5, 6, 8
Description: In another experiment, several FKBP13 DRD constructs were transiently transfected into HEK293 cells, as described above, and analyzed using a Celigo Image Cytometer (Nexcelom, Lawrence, MA).
To test the effects of other substitutions instead of methionine at residue number 54 and leucine at position 93 FKBP13 DRD constructs were generated and were transiently transfected into HEK293 cells, as described above, and analyzed using a Celigo Image Cytometer (Nexcelom, Lawrence, MA).
In another experiment, to explore the possibility of further truncating FKBP13, constructs (FKBP-044, FKBP-083, FKBP-084, FKBP-085, and FKBP-086) were transiently transfected into HEK293 cells, as described above, and analyzed using a Celigo Image Cytometer (Nexcelom, Lawrence, MA). A combination of DRD-genic M54A with truncation of the N-terminal histidine lowers basal (FKBP-083).
In another experiment, several constructs (FKBP-044, FKBP-092, FKBP-093, FKBP-094, FKBP-095, FKBP-096 and FKBP-097) designed to explore additional DRD-genic mutations were transiently transfected into HEK293 cells, as described above, and analyzed using a Celigo Image Cytometer (Nexcelom, Lawrence, MA).
Other constructs (FKBP-091, FKBP-098, FKBP-099, FKBP-100, and FKBP-101) were transiently transfected into HEK293 cells, as described above, and analyzed using a Celigo Image Cytometer (Nexcelom, Lawrence, MA).
(§1) In another experiment, several constructs (FKBP-091, FKBP-102, FKBP-103, FKBP-104, FKBP-105 and FKBP-106), designed to combine the binding site mutation identified in FKBP-091 with novel DRD-genic mutations, were transiently transfected into HEK293 cells, as described above, and analyzed using a Celigo Image Cytometer (Nexcelom, Lawrence, MA). […]
as §1, with “several other” for “several”, “FKBP-107, FKBP-108, FKBP-109, FKBP-110,” for “FKBP-102, FKBP-103, FKBP-104, FKBP-105”, “FKBP-111),” for “FKBP-106),”

[7] = system: Jurkat cells; test: Sirolimus (rapamycin) dose response of FKBP13 constructs stably transduced into Jurkat cells, flow cytometry; assay type: cell-based; settings: rapamycin, Table 14
Description: Normalized EC50 values were calculated from the mCherry normalized GFP MFI values, which accounted for any differences in mCherry intensity between samples.

[8] = tacrolimus dose response, Jurkat cells stably transduced (FIG. 10), Table 5

For `C=CC[C@@H]1/C=C(\C)C[C@H](C)C[C@H](OC)[C@H]2O[C@@](O)(C(=O)C(=O)N3CCCC[C@H]3C(=O)O[C@H](/C(C)=C/[C@@H]3CC[C@@H](O)[C@H](OC)C3)[C@H](C)[C@@H](O)CC1=O)[C@H](C)C[C@@H]2OC` [Tacrolimus, tacrolimus], the “increase in Ec50 with 80% FBS” value [1] is given as 2 fold, the Cmax [2] is given as 20 to 68 ng/mL and the Kd [3] is given as 166 nM.

B1: FKBP-043: FKBP13 DRD Q72R, Q84E, A117H, D90G; SEQ ID NO: 6 (protein)
chain: HCPIKSRKGDVLHMHYTGKLEDGTEFDSSLPRNQPFVFSLGTGEVIKGWGQGLLGMCEGEKRKLVIPSELGYGERGHPPKIPGGATLVFEVELLKIER
modifications: Description of sequence: FKBP13-AcGFP-mCherry Fusion; Construct Name: FKBP-043; FKBP13 DRD in Construct : FKBP13 (mutated to match FKBP12 active site - Q72R Q84E A117H) (DRD - D90G)
With B1 the “AcGFP stabilization / fluorescence signal in response to FK506” value ([4]; FIG. 1B) was “increased more effectively”, the DRD activity ([4]; FIG. 1B) was “had DRD activity” and the Fold Change [4] was 26.5.

B2: FKBP-041: FKBP13 DRD M54A; SEQ ID NO: 4 (protein)
chain: B1 chain with M14A, R32Q, E44Q, G50D, H77A
modifications: Description of sequence: FKBP13-AcGFP-mCherry Fusion; Construct Name: FKBP-041; FKBP13 DRD in Construct : FKBP13 (DRD - M54A)
Work on B2 yielded a Fold Change [4] of 7.8.

B3: FKBP-045: FKBP13 DRD Q72R, Q84E, A117H, M96V; SEQ ID NO: 8 (protein)
chain: B1 chain with G50D, M56V
modifications: Description of sequence: FKBP13-AcGFP-mCherry Fusion; Construct Name: FKBP-045; FKBP13 DRD in Construct : FKBP13 (mutated to match FKBP12 active site - Q72R Q84E A117H) (DRD - M96V)
With B3 the “AcGFP stabilization / fluorescence signal in response to FK506” value ([4]; FIG. 1B) was “increased more effectively” and the Fold Change [4] was 23.2.

B4: FKBP-039: FKBP13 (WT) fragment DRD-AcGFP-mCherry; SEQ ID NO: 2 (protein)
chain: B1 chain with R32Q, E44Q, G50D, H77A
modifications: Description of sequence: FKBP13-AcGFP-mCherry Fusion; Construct Name: FKBP-039; FKBP13 DRD in Construct : FKBP13 (WT)
In the case of B4, the Fold Change [4] is reported as 4.9.

B5: FKBP-042: FKBP13 DRD M96V; SEQ ID NO: 5 (protein)
chain: B1 chain with R32Q, E44Q, G50D, M56V, H77A
modifications: Description of sequence: FKBP13-AcGFP-mCherry Fusion; Construct Name: FKBP-042; FKBP13 DRD in Construct : FKBP13 (DRD - M96V)
For B5, the Fold Change [4] was 1.3.

B6: FKBP-044: FKBP13 DRD Q72R, Q84E, A117H, M54A; SEQ ID NO: 7 (protein)
chain: B1 chain with M14A, G50D
modifications: Description of sequence: FKBP13-AcGFP-mCherry Fusion; Construct Name: FKBP-044; FKBP13 DRD in Construct : FKBP13 (mutated to match FKBP12 active site - Q72R Q84E A117H) (DRD - M54A)
For B6, the Fold Change ([5]; tacrolimus dose response, Jurkat cells stably transduced (FIG. 4), Table 4) was 12.6, the “Fold Change” value [5, 8] was 11.805 and the “EC50 and fold-change characteristics” value ([5]; tacrolimus top concentration 10 μM, 24 hr, FIG. 2) was “best EC50 and fold-change characteristics”. The “AcGFP stabilization / fluorescence signal in response to FK506” value ([4]; FIG. 1B) was “increased more effectively” and the Fold Change [4] was 9.4.

B7: FKBP-091: FKBP13 DRD Q72R, Q84E, A117W, M54A; SEQ ID NO: 41 (protein)
chain: B1 chain with M14A, G50D, H77W
modifications: Description of sequence: FKBP13-AcGFP-mCherry Fusion; Construct Name: FKBP-091; FKBP13 DRD in Construct : FKBP13 (mutated to match FKBP12 active site Q72R Q84E A117W) (DRD - M54A)
For B7, the “performance / drug responsiveness in tacrolimus dose response” value [6] was “superior drug responsiveness”, the EC90 ([5]; read-out: Tacrolimus EC90 (Norm), tacrolimus, normalized, Table 14) was 117 nM and the EC90 ([5]; read-out: Tacrolimus EC90, tacrolimus, Table 14) was 111 nM. For the same molecule, the “Fold Change” value [5, 8] was 12.36, the “Fold Change” value ([5]; tacrolimus, Jurkat cells stably transduced, Table 6) was 11.29 and the “Tacrolimus FC” value ([5]; tacrolimus, fold change, Table 14) was 12.4. The EC90 ([7]; read-out: Rapamycin EC90) was 398 nM, the “Rapamycin FC” value ([7]; fold change) was 3.2 and the EC90 ([7]; normalized, read-out: Rapamycin EC90 (Norm)) was 414 nM.

B8: FKBP-068: FKBP13 DRD Q72R, Q84E, A117H, M54S; SEQ ID NO: 24 (protein)
chain: B1 chain with M14S, G50D
modifications: Description of sequence: FKBP13-AcGFP-mCherry Fusion; Construct Name: FKBP-068; FKBP13 DRD in Construct : FKBP13 (mutated to match FKBP12 active site - Q72R Q84E A117H) (DRD - M54S)
For B8, the “performance / drug responsiveness in tacrolimus dose response” value [6] was “closest in performance to the original M54A substitution” and the “Fold Change” value [5, 8] was 43.62.

B9: FKBP-040: FKBP13 DRD D90G; SEQ ID NO: 3 (protein)
chain: B1 chain with R32Q, E44Q, H77A
modifications: Description of sequence: FKBP13-AcGFP-mCherry Fusion; Construct Name: FKBP-040; FKBP13 DRD in Construct : FKBP13 (DRD - D90G)
Work on B9 yielded a Fold Change [4] of 1.

B10: FKBP-083: FKBP13 trunc1 DRD Q72R, Q84E, A117H, M54A; SEQ ID NO: 33 (protein)
chain: CPIKSRKGDVLHAHYTGKLEDGTEFDSSLPRNQPFVFSLGTGEVIKGWDQGLLGMCEGEKRKLVIPSELGYGERGHPPKIPGGATLVFEVELLKIER
modifications: truncated (trunc1); Description of sequence: FKBP13-AcGFP-mCherry Fusion; Construct Name: FKBP-083; FKBP13 DRD in Construct : FKBP13 trunc1 (mutated to match FKBP12 active site - Q72R Q84E A117H) (DRD - M54A)
In the case of B10, the Basal ([6]; FIG. 7) is reported as “lowers basal”.
